Assay results taken from US9290800.

Target: T1, M2Y DNA polymerase-His10 (polymerase A) (Bacteriophage M2Y) (UniProt P19894)
T1 sequence: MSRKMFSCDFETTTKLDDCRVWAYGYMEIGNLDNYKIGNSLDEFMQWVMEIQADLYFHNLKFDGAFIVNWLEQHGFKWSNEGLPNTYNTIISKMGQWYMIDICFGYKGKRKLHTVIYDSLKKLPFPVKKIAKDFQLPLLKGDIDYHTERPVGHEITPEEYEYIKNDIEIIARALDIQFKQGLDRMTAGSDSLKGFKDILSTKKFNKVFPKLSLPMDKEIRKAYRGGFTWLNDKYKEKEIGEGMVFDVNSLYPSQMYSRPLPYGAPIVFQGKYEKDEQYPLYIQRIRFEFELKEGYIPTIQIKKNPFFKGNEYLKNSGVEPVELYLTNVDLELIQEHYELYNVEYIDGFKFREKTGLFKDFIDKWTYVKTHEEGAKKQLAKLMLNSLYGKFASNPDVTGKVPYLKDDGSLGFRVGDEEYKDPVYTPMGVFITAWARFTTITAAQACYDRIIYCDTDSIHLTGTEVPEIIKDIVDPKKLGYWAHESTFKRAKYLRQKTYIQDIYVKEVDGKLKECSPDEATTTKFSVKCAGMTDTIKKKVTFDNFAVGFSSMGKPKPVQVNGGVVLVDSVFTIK
Conditions: average amplification per round over two rounds

FMR1 genomic fragment SMRTbell
activity: 177 fold
